This passage reports activity results from patent US20210147922.

Assay in all cases: cell_activity
Series [1] relates to GA6_L17 TALEN left monomer. To be noted: paired with GA6_R, K562 cells.
The test system of series [2] is GA6_R TALEN right monomer. To be noted: paired with GA6_L, 2 ug mRNA per monomer, K562 cells.
The test system of series [3] is GA6_EK TALEN right monomer. To be noted: GA6_EK pair; GA6 54% in same table.
The test system of series [4] is AAVS1_L TALEN left monomer. To be noted: paired with AAVS1_R, 2 ug per monomer, K562 cells.
Series [5] concerns GA6_L19 TALEN left monomer. To be noted: paired with GA6_R, K562 cells.
Series [6] concerns GA6_EK TALEN left monomer. To be noted: GA6_EK pair; GA6 54% in same table.
Series [7] relates to GA6_L (GA6_L14) TALEN left monomer. To be noted: paired with GA6_R, K562 cells.
For series [8], the system named is GA7_EK TALEN left monomer. The following applies: GA7_EK pair, CD34+ cells; GA7 50%.
A further series has as its system GA7_L TALEN left monomer. To be noted: paired with GA7_R, 2 ug per monomer, CD34+ cells.
The test system of series [9] is GA7_EK TALEN right monomer. To be noted: GA7_EK pair, CD34+ cells; GA7 50%.
For series [10], the system named is GA7_R TALEN right monomer. The following applies: paired with GA7_L, 2 ug per monomer, CD34+ cells.
For series [11], the system named is AAVS1_R TALEN right monomer. The following applies: paired with AAVS1_L, 2 ug per monomer, K562 cells.

Turning to “TGTGTAACAATGCCTGTG (double strand) [GA6_L17 left half-site]”, in series [1], the activity was found to be 98 % editing.

Regarding “AGTGCATGGCTGCAATGTGTGA (double strand) [GA6 right half-site (printed top strand)]”, the activity in [2] stood at 91 % editing; in [3], 36 % editing.

In [4], “TCCCCTCCACCCCACAGT (double strand) [AAVS1 left half-site]” had an activity of 93 % editing.

“TGGAGTGTGTAACAATGCCT (double strand) [GA6_L19 left half-site]”: in series [5], the activity was 86 % editing.

Turning to “TGTGTAACAATGCCT (double strand) [GA6 left half-site]”, the activity in series [6] was found to be 36 % editing; in [7], 96 % editing.

On to “TGCTCAGCCCAGCTCAGCCT (double strand) [GA7 left half-site]”, for which the activity in series [8] was 20 % editing; in the series on GA7_L TALEN left monomer, 70 % editing.

“ATGGTAGAGAATGAGAGGGGGA (double strand) [GA7 right half-site (printed top strand)]”: the activity was 20 % editing in [9] and 70 % editing in series [10].

“AGGATTGGTGACAGAAA (double strand) [AAVS1 right half-site (printed top strand)]” displayed an activity in series [11] of 93 % editing.
